Reference: the RNAGym collection of RNA variant scans (doi:10.1073/pnas.2313332121)

B1: TPR t1 (parent)
chain: GACCAAUCUGCCCUCAGAGCUCGAGAACAUCUUCGGAUGCAGAGGAGGCAGGCUUCGGUGGCGCGAUAGCGCCAACGUCCUCAACCUCCAAUGCAUCCCACCACAUGAUGAUGCCUGAAGAGCCUUGGUUUUUUG

Variants of: B1
Experiment: polymerase ribozyme fitness, log enrichment relative to wild type (log ratio); higher = more active; in vitro selection for triplet polymerase activity
How it was run: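 Mutant libraries for each subunit of a heterodimeric triplet polymerase ribozyme were made by PCR and then transcribed. Each library underwent one round of in vitro selection in triplicate: annealing with a biotinylated primer, the partner subunit and triplets, frozen incubation at −7 °C, gel excision of extended constructs, streptavidin-bead capture and RT-PCR. Input and output libraries were Illumina-sequenced, and only genotypes with ≥10 input reads and ≥1 read per output were kept. Fitness is the logarithm, base 2, of genotype enrichment over wild-type enrichment, computed from inverse-variance-weighted replicate averages.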

| Variant | polymerase ribozyme fitness (log ratio) |
| --- | --- |
| GACCAAUCUGCACUCAGUGCUCGAGAACAUCUUCGGAUGCAGAGGAGGCAGGCUUCGGUGGCGCGAUAGCGCCAAGUUCCUCAACCUCCAAUGCAACCCACCACAUGAUGAUGCCUGAAGAGCCUUGGUUUUUUG | -4.3 |
| GUCCAAUCUGCCCUCAGAGCUCGAGAACAUCUUCGGAUGCAGAGGAGGCAGGCUUCGGUGGCGCGAUAGCGCCAACGUCCUCAACCUCCACUGCAUCCCACCACAUGAUGAUGCCUGAAUAGCCUUGGUUUUUUG | -3.98 |
| GACCAAUCUGCCCUCAGAGCUCGAGAACAUCUUCGGAUGCAGGGGAGGCAGGCUUCGGUGGCGCGAUAGAGCCAACGUCCUCAACCUCCAAUGCAUCCCACCACAUGAUGAUGCCUGAAGAGCCUUGGUUUUUUG | -4.41 |
| GACCAAUCUGCCCUCAGAGCUCGAGAACAUCUUCGGAUGCAGAGGAGGCAGGCUUCGGUGACGCGAUAGCGCCAACGUCCUCAACCUCCAAUGUAUCCCACCACAUGAUGAAGCCUGAAGAGCCUUGGUUUUUUG | 1.31 |
| GACCAAUCUGCCCUCAGAGCUCGAGAACAUCUUCGGAUGCAGAGGAGGCAGGCUUCGGUGGCGCGAUAGCGUCAACGUCCUCAACCUCCAAAGCAUCCCACCACAUGAUGAUGCCUGAAGAGCCUUGGUUUUUUG | -3.15 |
| GACCGAUCUGGCCUCGGAGCUCGAGAACAUCUUCGGAUGCAGAGGAGGCAGGCUUCGGUGGCUCGAUAGCGCCCACUUCCUCAACCUCCAAUGCCUCCCACCACAUGAUGAUGCCUUAAGAGCCUUGGUUUUUUG | -2.32 |
| GACCAAUCAGCCCUCAGAGCUCGAGAACUUCUUCGGAUGCAGAGGAGGCAGGCUUCGGUGGCACGAUAGCGCCAACGUCCUCAACCUCCAAUGCAUCCCACCAAAUGAUGAUGCCUGAAGAGCCUUGGUUUUUUG | -3.02 |
| GACCGAUCUGACCUCAGAGCUCGAGAACAUCUUCGGAUGCAGAGGAGGCAGGCUUCGUUGGCGCGAUAGCGCCAACGUCCUCAACCUCCAAUGCAUCCCACCACAUGAUGAUGCCUGAAGAGCCUUGGUUUUUUG | -1.23 |
| GAUCAAUCUGCCCUCAGAGCUCGAGAACAUCUUCGGAUGCAGAGGAGGCAGGCUUCGGUGGCGCGAUAGCGCCAACGUCCUCAACCUCCAUUCCAUCCCACCACAUGAUGAUCCCUGAAGAGCCUUGGUUUUUUU | -3.84 |
| GACCAAUCUGCCCUCAGAGCUCGAGAACAUCUUCGGAUGCAGAGGAGGCAGGCUUCGGCGGCGCGAUAGCGCCAACGUCCUCAACCUCCAAUGCAUCCCACCUCAUGAUGACGCCUGAAGAGCCUUGUUUUAAUG | -5.05 |
| GACCAAUCUGCCCUCAGAGCUCGAGAACAUCUUCGGAUGCCGAGGAGGCAGGCUUCGGUGGCGUGAUAGCGCCAACGCCCUCAACCUCCAAUGCAUCCCACCACAAGAUGAUGCCUGAAGAGCCUUGGUUUUUUG | -1.57 |
| GACCAAUCUGCCCUCAGAGCUCGAGAACAUCUUCGGAUGCAGAGGACGCAGGCUUCGGUGGCGCGAUAUCGUCAACGUCCUCAACCUCCAAUGCAUCCCACCACAUGAUGAUGCCUGAAGAGCCUUGGUUUUUUG | -1.29 |
| GACCAAUGUGCCCUCAGAGCUCGAGAACAUCUUCGGAUGCAGAGGAGACAGGCUUCGGUGGCGCGAUAGCGCCAACGUCCUCAACCUCCAAUGCAUCCCACCACAUGAUGAUGCCUGAAGAGCCUUGUUUUUUUG | -2.01 |
| GACCAAUCUGCCCUCAGAGCUCGAGAACAUCUUCGGAUGCAGAGGAGGCAGGCUUGGGUGGCGCGAUAGCGCCAACGUCCUCAACCUCCAAUGCAUCCCACCACAUGAUGAUGCCUGAAGAGCCUUGGUUUUUUU | -1.35 |
| GACCAAUCUGCCCUCAGAGCUCGAGAACAUCUUUGGAUGCAGAGGAGGCAGGCUUCGGUGGCUCGAUAGCGCCAACGUCCUCAACCUCCAAUGCAUCCCACCACAUGAUGAUGCCUGAAGAGCCUUGGUUUUUUG | -4.85 |
| GACCAAUCUGCCCUCAGAGCUCGAGAACAUCUUCGGAUGCAGAGGAGGCAGGCUUCGGUGGCGCGAUAGCGCCAACGUCCUCAACCUCCAAUGCAUCCCCCCACAUGAUCAUGCCUGAAGAGCCUUGGUUUUUUG | -4.94 |
| GACCAAUCUGCCCUCAGAGCUCGAGAACAUCUUCGGAUGCGGAGGAGGCAGCCUUCGUUGGAGCGAUAGCGCCAACGCCCUCAACCUCCAAUGCAUCCCACCACAUGAUGCUGCCUGAAGAGCCUUAGUUUUUUG | -4.32 |
| GACCAAUCUGCCAUCAGCGCUCGAGAACAUCUUCGGAUGCAGAGGAGGCAGGCUUCGGUGGCGCGAUAGCGCCAACGUCCUCAACCUCCAAUGCAUCCCACCACAUGAUGAUGCCUGAAGAGCCUUGGUUUUUUG | -4.69 |
| GACCAAUCUGCCGUCAGAGCUCGAGAACAUCUUCGGAUGCAGAGGAGGCAGGCUUCGGUGACGCGAUAGCGCCAACGUCCUCAACCUCCAAUGGAUCCCACCACAUGAUGAUGCCAGAAGAGCCUUGGUUUUUUG | -6.69 |
| GAGCAAUCUGCCCUCAGAGCUCGAGAACAUCUUCGGAUGCAGAGGAGGCAGGCUUUGGUGGCGCGAUAGCGCCAACGUCCUCAACCUCCAAGGCAUCCCACCACAUGAUGAUGCCUGAAGAGACUUGGUUUUUUG | -3.5 |
| GACCAAUCUGCACUCAGAGCUCGAGAACAUCUUCGGAUGCAGAGGUCGCAGGCUUCGGUGGCGCGAUGGCGCCAACGCCCUCAACCUCCAAUGCAUCCCACCACAUGAUGAUGCCUGAAGAGCGUUGGUUUUUUG | -4.93 |

| Variant | polymerase ribozyme fitness (log ratio) |
| --- | --- |
| GACCAAUCUGCCCUCAGAGCUCGAGAACAUCUUCGGAUGCAGAGGAGGCAGGCUUCGGUGGCGCGAUAGCGCCAACGGCCUCAACCUCCAAUGCCUCCCACCACAUGAUGAUGCCUGAAGAGCCUUGGUUUUUUG | -0.597 |
| GACCAAUCUGCCCUCAGAGCUCGAGAACAUCUUCGGAUGCAGAGUAGGCAGGCUUCGGUGGCGCGAUAGCGCCAACGUCCUCAACCUCCAAUGCAUCCCACCACAUGAUGAUGCCUGAAAAGCCUUGGUUUUUUG | -0.795 |
| GACCAAUCUGCCCUCAGAGCUCGAGAACAUCUUCGGAUGCAGAGGAGGCAGGCUUCGGUGGCGCGAUAGCGCCAACGUCGUCAACCUCCAAUGCAUCCCACCACAUGAUGAUGCCUGAAGAGCAUUGGUUUUUUG | -5.18 |
| GACCAAUCUGCCCUCAGAGCUCGAGAACAUCUUCGGAUGCAGAGGAGGCAGGCUUCGGUGGCGCGAUAGCGCCAACGUCCUCAAGCUCCAAUGCAUCCCACCACAUGAUGAUGCCUGAAGAGCCUUGAUUUUUUG | -2.55 |
| GACCAAUCUGCCCUCAGAGCUCGAGAACAUCUUCGGAUGCAGAGGAGGCAGGCUUCGGUGGCGCGAUAGUGCCAACGUCCUCAACCUCCAAUGCAUCCCACCUCAUGAUGAUGCCUGAACAGCCUUGGUUCUUUG | -5.74 |
| GACCAAUCUGCCCUCAGAGCUCGAGAACAUUUUCGGAUGCAGAGGAGGAAGGCUUCGGUGGCGCGAUAGCGCCAACGUCCUCAACCUCCAAUGCAUCCCACCACAUGAUGAUGCCUGAAGAGUUUUGGUUUUUUG | -4.12 |
| GACCAAUCUGCCCUCAGUGCUCGAGAACAUCUUCGGAUGCAGAGGAGGCAGGCUUCGGUGGCACGAUAGCGCCAACGUCCUCAACCUCCAAUGCAUCCCACCACAUGAUUAUGCCUGAAGAGCCUUGGUUUUUUG | -6.24 |
| GACCAAUCUGCCCUCAGAGCUCGAGAACAUCUUCGGAUGCAGAGGAGGCAGGCUUCGGUGGCGCGAUAGCGUCAACGUCCUCAACCUCCAAUGCCUUCCACCACAUGAUGAUGCCUGAAGAGCCUUGGUUUUUUG | -2.94 |
| GACCAAGCUGCCCUCAGAGCUCGAGAACAUCUUCGGAUGCAGAGGAGGCAGGCUUCGGUGGCGCGAUAGCGCCAACGUCCUCAACCUUCAAUGCAUCCCACCACAUGAUGAUGCCUGAGGAGCCUUGGUUUUUUG | 1.51 |
| GACCAAUCUGCCCUCAGAGCUCCAGAACAUCUUCGGAUGCAGAGGAGGCAGGCUUCGGUGGCGCGAUAGGGCCAACGUCCUCAACCUCCAAUGCAUCCCACCACAUGAUGAUGCCUGAAGAGCCUUGGUUUUUUG | -7.47 |
| GACCAAUCUGCCCUCAGAGCUCGAGAACAUCUUCGGAUGCAGAGGAGGCAGGCUUCGGUGGCGCGAUAGCGUCAACGUCCUCAACCUCCACUGCAUCCCACCACAUGAUGAUGCCUGAAGAGCCUUAGUUUUUUG | -2.46 |
| GACCAAUCUGCCCUCCGAGCUCGAGAACAUCUUCGGAUGCAGAGGAGGCAGGCUUCGGUGGCGGGAUAUCGCCAACGUCCUCAACCUCCAAUGGAUCCCACCACAUGAUUAUGCCUGAAGAGCCUUGGUUUUUUG | -4.25 |
| GACCAAUCUGCCCGCAGAGCUCGAGAACAUCUUCGGAUGCAGAGGAGGCAGGCUUCGAUGGCGCGAUAGCGCCAACGUCCUCAACCUCCAAUGCUUCCCACCACAUGAUGAUGCCUCAAGAGCCUUGGUUUUUUG | -5.13 |
| GACCAAUCUGCCCUCAGACCUCGAGAACAUCUUCGGAUGCAGAGGAGGCAGGCUUCGGUGGCGCGAUAGCGCCAACGUCCUCAACCUCCAAUACAUCCCACCAUAUGAUGACGCCUGAAGAGCCUUGGUUUUUUG | -0.693 |
| GACCAAUCUGCCCUCAGAGCUCGAGAACAUCUUCGGAUGCAGAGGAGGCAGGGUUCGGUGGCGCGAUAGCGUCAACGUCCUCAACCUCCAAUGCAUCCCACCACAUGAUGAUGCCUGAAGAGCCUUGGUUUUUUG | -1.04 |
| GACCAAUCUGCCCUCAGAGCUCGAGAACAUCUUCGGAUGCAGAGGAGCCAGGCUUCGGUGGCGCGAUAGCGCCAACGUGCUCAACCUCCAAUGCAUCCCACCACAUGAUGAUGCCUGAAGAGCCUUGGUUUUUUG | -4.27 |
| GACCAAGCUGCCCUCAGAGCUCGAGAACAUCUUCGGAUGCAGAGGAGGCAGGCAUCGGUGGCGCGAUAGCGCCAACGUCCUCAACCUCCAAUGCAUCCCACAACAUGAUGAAGCCUGAAGAGCCUUGGUUAUUUG | -0.106 |
| GACCAAUCUGUCCUCAGAGCUAGAGAACAUCUUCGGAUGCAGAGGAGGCAGGCUUCGGUGGCGCGAUAGCGCCAACGUCCUCAACCUCCAAUGCAUCCCACCACAUGAUGAUGCCUGAAGAGCCUUGGUUUUUUG | -4.84 |
| GACCAACCUGCCCUCAGAGCUCGAGAACAUCUUCGGAUGCUGAGGAGGCAGGCUUCGGUGGCGCGAUAGCGCCAACGUCCUCAACCUCCAAUGCAUCCCACCACAUGAUGAUGCCUGAAGAGGCUUGGUUAUUUG | 0.484 |
| GACCAAUCUGCCCUGAGAGCUCGAGAACAUCUUCGGAUGCAGAGGAGGCAGGCUUCGGUAGCGCGAUAGCGCCAACGUCCUCAACCUCCAAUGCAUCCCACCACAUGAUGAUGCCUUAAGAGCCUUGGUUUUUUG | -0.472 |
| GACCAAUCUGCCCUCAGAGCUCGAGAACAUCUUCGGUUGCAGAGGAGGCAGGCUUCGGUGGCGCGAUAGCGCCAACGUCCUCAACCUCCAAUGCAUCCCACCACAUGAUGAUGCCUGAAGAGCCUUGGUUUUUUG | -0.355 |
